# Assay results: US20210069342A1 (LEGOCHEM BIOSCIENCES, published 2021)
# B1: anti-ROR1 IgG antibody C2E3 (antibody, V domains shown)
# VH: EVQLLESGGGLVQPGGSLRLSCAASGFTFSNYAMSWVRQAPGKGLEWVSSISHNSGSTYYADSVKGRFTISRDNSKNTLYLQMNSLRAEDTAVYYCAKFISARKSLGRSYSNGMDVWGQGTLVTVSS
# VL: QSVLTQPPSASGTPGQRVTISCTGSSSNIGSNDVTWYQQLPGTAPKLLIYADSKRPSGVPDRFSGSKSGTSASLAISGLRSEDEADYYCGTWDYSLSGYVFGGGTKLTVLG
# notes: Full IgG form (human IgG1 constant region, lambda light chain), expressed in CHO-S cells
# Assays:
# [1] = target: T1, human ROR1 expressed on the cell surface (human, UniProt Q01973 30-937); assay: flow cytometry on Calu-6 cells (lung cancer), C2E3 IgG, FITC anti-human Fc detection
# T1 construct: whole, on cells; also called cell surface-expressed ROR1 antigen; ROR1 on JeKo-1, Mino, CHO-human ROR1, MC38-human ROR1 and other cancer cell lines
# T1 sequence (Q01973 30-937): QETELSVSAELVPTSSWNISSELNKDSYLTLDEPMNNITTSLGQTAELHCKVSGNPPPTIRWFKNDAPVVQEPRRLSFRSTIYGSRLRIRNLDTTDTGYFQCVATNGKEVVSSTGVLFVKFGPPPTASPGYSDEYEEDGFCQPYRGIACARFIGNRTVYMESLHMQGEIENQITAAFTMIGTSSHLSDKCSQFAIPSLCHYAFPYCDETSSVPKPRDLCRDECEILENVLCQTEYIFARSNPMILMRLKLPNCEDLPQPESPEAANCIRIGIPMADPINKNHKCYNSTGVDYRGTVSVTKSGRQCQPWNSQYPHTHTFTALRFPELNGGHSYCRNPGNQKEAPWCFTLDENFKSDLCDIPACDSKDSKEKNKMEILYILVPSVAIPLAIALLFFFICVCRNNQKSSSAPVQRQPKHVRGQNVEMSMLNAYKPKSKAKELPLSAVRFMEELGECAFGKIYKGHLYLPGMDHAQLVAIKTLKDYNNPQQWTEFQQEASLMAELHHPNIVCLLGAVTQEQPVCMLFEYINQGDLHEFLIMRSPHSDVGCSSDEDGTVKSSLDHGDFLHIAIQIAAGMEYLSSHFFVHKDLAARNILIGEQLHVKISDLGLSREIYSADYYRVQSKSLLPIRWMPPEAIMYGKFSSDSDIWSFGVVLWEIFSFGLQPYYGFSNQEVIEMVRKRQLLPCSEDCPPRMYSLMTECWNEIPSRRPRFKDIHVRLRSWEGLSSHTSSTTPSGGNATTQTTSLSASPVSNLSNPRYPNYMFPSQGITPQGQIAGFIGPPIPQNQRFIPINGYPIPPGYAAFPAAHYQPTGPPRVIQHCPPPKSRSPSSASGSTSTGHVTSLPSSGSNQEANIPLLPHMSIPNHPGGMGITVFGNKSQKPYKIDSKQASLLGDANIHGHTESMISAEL
# Protocol: (§1) FACS analysis (FACSCalibur, BD Biosciences) was used to analyze the binding of the anti-ROR1 antibody of the present invention to ROR1 in the above cell lines.
# (§2) Specifically, the respective cell lines were dissociated and washed in PBS, then the numbers of cells were counted and adjusted to 2×10⁵ cells/200 PBS. Then, they were treated with 10 /mL of the antibody of clone name C2E3 of the ROR1 monoclonal antibodies prepared in Embodiment 3, and reacted for 1 hour at 4° C. After the reaction, the cells were washed in PBS, then FITC-marked constant region (Fc) specific antibody (Goat anti-human IgG FITC conjugate, Fc specific, Sigma, F9512, concentration 20 mg/ml) was suspended in 2 /1×10⁵ cells/200 PBS and reacted for 1 hour at 4° C. After reacting, the cells were washed with PBS and analyzed with the FACSCalibur equipment. The negative control was only treated with FITC-marked constant region (Fc) specific antibody. To compare the degree of ROR1 expression among the respective cancer cell lines, the quotient of dividing the shifted readings for the experimental group treated with the ROR1 monoclonal antibody (C2E3) of the present invention by the shifted readings for the control group (MFI Ratio: MFI of anti-ROR1/MFI or 2nd Ab) is indicated.
# [2] = target: T1, human ROR1 expressed on the cell surface; assay: flow cytometry on NCI-H1975 cells (lung cancer), C2E3 IgG, FITC anti-human Fc detection
# Protocol: as §1, §2
# [3] = target: T2, human ROR2 over-expressed on CHO cells (CHO-human ROR2) (human, UniProt Q01974 34-943); assay: flow cytometry on CHO-S cells transiently over-expressing human ROR2, FITC anti-human Fc detection, MFI ratio to 2nd Ab alone
# T2 construct: whole, on cells; Negative control; also called family protein human ROR2
# T2 sequence (Q01974 34-943): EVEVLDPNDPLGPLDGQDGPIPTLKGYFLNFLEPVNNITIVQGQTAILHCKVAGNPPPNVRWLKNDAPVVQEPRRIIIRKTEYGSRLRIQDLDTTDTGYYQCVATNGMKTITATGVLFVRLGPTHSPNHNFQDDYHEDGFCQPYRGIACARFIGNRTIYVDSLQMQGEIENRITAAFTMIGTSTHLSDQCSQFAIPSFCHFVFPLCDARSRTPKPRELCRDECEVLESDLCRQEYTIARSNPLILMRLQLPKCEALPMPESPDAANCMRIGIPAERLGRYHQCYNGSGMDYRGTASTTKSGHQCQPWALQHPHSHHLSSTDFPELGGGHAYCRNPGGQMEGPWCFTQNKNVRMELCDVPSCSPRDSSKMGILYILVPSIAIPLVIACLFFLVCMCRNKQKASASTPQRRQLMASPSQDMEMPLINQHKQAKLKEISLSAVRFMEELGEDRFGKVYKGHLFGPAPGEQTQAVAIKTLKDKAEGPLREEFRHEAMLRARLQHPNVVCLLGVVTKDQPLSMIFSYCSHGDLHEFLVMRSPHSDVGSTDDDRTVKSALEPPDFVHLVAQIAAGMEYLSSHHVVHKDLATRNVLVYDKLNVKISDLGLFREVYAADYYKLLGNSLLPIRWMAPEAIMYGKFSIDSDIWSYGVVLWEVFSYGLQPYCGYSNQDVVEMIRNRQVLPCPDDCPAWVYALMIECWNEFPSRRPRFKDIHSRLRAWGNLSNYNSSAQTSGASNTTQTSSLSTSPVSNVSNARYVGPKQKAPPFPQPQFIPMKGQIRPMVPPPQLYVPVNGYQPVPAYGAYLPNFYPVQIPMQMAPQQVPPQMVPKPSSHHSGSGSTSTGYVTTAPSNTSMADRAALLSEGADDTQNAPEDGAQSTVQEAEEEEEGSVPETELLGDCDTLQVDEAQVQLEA
# Description: For this experiment, using cell lines (FIG. 5 and FIG. 7, respectively) transiently (CHO-human ROR1, CHO-human ROR2, CHO-mouse ROR1) or stably (MC38-human ROR1) transfected with ROR1 gene to achieve artificial over-expression of ROR1 protein, an ROR1-expressing cell line (JeKo-1, Mino) (FIG. 6), a non ROR1-expressing cell line (MCF7) (FIG. 6) and a FACSCalibur (BD Biosciences) device was used to measure the degree to which anti-ROR1 antibody and ROR1 were bound, as follows. […] JeKo-1, Mino, CHO-human ROR1, CHO-mouse ROR1 and MC38-human ROR1 are all cell lines which express human ROR1 or mouse ROR1.
# Specifically, after dissociating each cell line and washing in PBS, the number of cells was counted and adjusted to 2×10⁵ cells/200 PBS. Then the respective ROR1 monoclonal antibodies prepared in Embodiment 3 were diluted 5 times from 10 /mL or 10 /mL, then reacted for 1 hour at 4° C. After the reaction, the cells were washed in PBS, then FITC-marked constant region (Fc) specific antibody (Goat anti-human IgG FITC conjugate, Fc specific, Sigma, F9512, concentration 20 mg/ml) was suspended in 2 /1×10⁵ cells/200 PBS and reacted for 1 hour at 4° C. As for identification of the degree of expression of the transiently over-expressed human ROR1, human ROR2 and mouse ROR1, a commercially available FACS analysis antibody (anti-ROR1: R&D Systems, FAB 2000G, anti-ROR2: R&D, FAB20641P) was used. After reacting the cells were washed in PBS and analyzed using a FACSCalibur device. The negative control (2nd Ab) was only treated with FITC-marked constant region (Fc) specific antibody. The shifted readings for the respective experimental groups treated with ROR1 monoclonal antibody were compared against the shifted reading for the control group (MFI Ratio: MFI of anti-ROR1/MFI of 2nd Ab).
# [4] = target: T1, human ROR1 expressed on the cell surface; assay: flow cytometry on HCC1937 cells (breast cancer), C2E3 IgG, FITC anti-human Fc detection
# Protocol: as §1, §2
# [5] = target: T1, human ROR1 expressed on the cell surface; assay: flow cytometry on DLD-1 cells (colon cancer), C2E3 IgG, FITC anti-human Fc detection
# Protocol: as §1, §2
# [6] = target: T1, human ROR1 expressed on the cell surface; assay: flow cytometry on 697 cells (ALL), C2E3 IgG, FITC anti-human Fc detection
# Protocol: as §1, §2
# [7] = target: T1, human ROR1 expressed on the cell surface; assay: flow cytometry on MDA-MB-231 cells (breast cancer), C2E3 IgG, FITC anti-human Fc detection
# Protocol: as §1, §2
# [8] = target: T1, human ROR1 expressed on the cell surface; assay: flow cytometry on H1437 cells (lung cancer), C2E3 IgG, FITC anti-human Fc detection
# Protocol: as §1, §2
binder,measurement,setting,value
B1,Mean Fold Ratio (MFI of anti-ROR1 / MFI of 2nd Ab),[1],3.3
same,Mean Fold Ratio (MFI of anti-ROR1 / MFI of 2nd Ab),[2],4.2
same,binding result,[3],no binding
same,Mean Fold Ratio (MFI of anti-ROR1 / MFI of 2nd Ab),[4],2.7
same,Mean Fold Ratio (MFI of anti-ROR1 / MFI of 2nd Ab),[5],17.6
same,Mean Fold Ratio (MFI of anti-ROR1 / MFI of 2nd Ab),[6],12
same,Mean Fold Ratio (MFI of anti-ROR1 / MFI of 2nd Ab),[7],8.8
same,Mean Fold Ratio (MFI of anti-ROR1 / MFI of 2nd Ab),[8],4.1
